T1: human IL-33 (R&D Systems, #3625-IL-010/CF) (human) (UniProt O95760)
T1 sequence (looked up): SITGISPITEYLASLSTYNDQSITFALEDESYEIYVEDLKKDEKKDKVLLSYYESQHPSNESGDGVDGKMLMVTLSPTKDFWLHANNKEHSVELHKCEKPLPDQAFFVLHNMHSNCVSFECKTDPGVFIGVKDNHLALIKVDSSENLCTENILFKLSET

T2: biotinylated human IL-33 (human) (UniProt O95760)
T2 sequence (biotin-labeled with EZ-LINK NHS-PEG4-Biotin, looked up): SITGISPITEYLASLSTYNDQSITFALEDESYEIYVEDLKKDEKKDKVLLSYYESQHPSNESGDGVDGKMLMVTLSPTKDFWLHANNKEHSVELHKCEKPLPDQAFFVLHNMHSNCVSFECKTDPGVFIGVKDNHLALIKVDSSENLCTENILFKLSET

B1: H4H9675P (antibody, from another filing, IgG4, V domains shown)
VH: EVQLVESGGNLEQPGGSLRLSCTASGFTFSRSAMNWVRRAPGKGLEWVSGISGSGGRTYYADSVKGRFTISRDNSKNTLYLQMNSLSAEDTAAYYCAKDSYTTSWYGGMDVWGHGTTVTVSS
VL: DIQMTQSPSSVSASVGDRVTITCRASQGIFSWLAWYQQKPGKAPKLLIYAASSLQSGVPSRFSGSGSGTDFTLTISSLQPEDFAIYYCQQANSVPITFGQGTRLEIK
B2: H4H9666P (antibody, from another filing, IgG4, V domains shown)
VH: QVQLVQSGAEVKKPGASVKVSCKASGYTFTSYGISWVRQAPGQGLEWMGWIRAYNGYTNYAQKFQGRVTMTTDTSTNTAYMELRTLNSDDTAVYYCARDRYSGSFHGNFDYWGQGTLVTVSS
VL: DIQMTQSPSSVSASVGDRVTITCRASQGIFSWLAWYQQKPGKAPKVLIYAASNLESGVPSRFSGSGSGTDFTLTISSLQPEDFATYYCQQANSLPLTFGGGTKVEIK
B3: H4H9664P (antibody, from another filing, IgG4, V domains shown)
VH: QVQLVESGGGVVQPGRSLRLSCAASGFTFSSYGLHWVRQSPGKGLEWVALISYDGSNKYYADSVKGRFTISRDNSKNTLYLQMNSLRPEDTAGYFCAKSLYTTSWYGGFDYWGQGTLVTVSS
VL: DIQMTQSPSSVSASVGDRVTITCRASQGIRSWLAWYQQKPGKAPNLLIYAASSLQSGVPSRFSGSGSGTDFTLTISSLQPEDFATYYCQQANSFPPTFGPGTKVDIK
B4: H4H9671P (antibody, from another filing, IgG4, V domains shown)
VH: EVQLVESGGGLVQPGGSLRLSCAASGFTLRSYFMTWVRQVPGKGLEGVSAISGISGGTYYTDSVKGRFTISRDNSKNTLFLQMNSLRAEDTAVYFCARTVYSSSYYGGFQHWGQGTLVTVSS
VL: DIQMTQSPSSVSVSVGDRVTITCRASQGISSWLAWYQQKPGKAPKLLIYVASSLQSGVPSRFSGSGSGTDFTLTISSLQPEDFATYYCQQTNSFPLTFGGGTKVEIK
B5: H4H9662P (antibody, from another filing, IgG4, V domains shown)
VH: EVQLVESGGGLVQPGGSLRLSCAASGFTFSSYALTWVRQAPGKGLEWVSFISGSGGRPFYADSVKGRFTISRDNSKNMLYLQMNSLRAEDTAIYYCAKSLYTTSWYGGFDSWGQGTLVTVSS
VL: DIQMTQSPSSVSASVGDRVTITCRASQGVVSWLAWYQQKPGKAPKLLIYAASSLQSGVPSRFSGSGSGTDFTLTISSLQPEDFATYYCQQSNSFPFTLGPGTKVDIK
B6: H4H9665P (antibody, from another filing, IgG4, V domains shown)
VH: EVQLVESGGGLVQPGGSLRLSCAASGFTFSNYAMTWVRQAPGKGLEWVSTISGSGDNTYYADSVQGRFTISRGHSKNTLYLQMNSLRAEDTAVYYCAKPTYSRSWYGAFDFWGQGTMVTVSS
VL: DIQMTQSPSSVSASVGDRVTITCRASQGISSWLAWYQQKPGKAPQLLIYAASRLQSGVPSRFWGSGSGTDFTLTISSLQPEDFATYYCQQANNFPFTFGPGTKVDIK
B7: H4H9670P (antibody, from another filing, IgG4, V domains shown)
VH: EVQLVESGGGLVQPGGSLRLSCAASGFTLSSYAMSWVRQAPGKGLEWVSAISGSGGSTYYADSVKGRFTISRDNSKNSLYLQLNSLRAEDTAVYYCAKTLYTTSWYGGFQHWGQGTLVTVSS
VL: DIQMTQSPSSVSASIGDRVTITCRASQGISSWLAWYQQKPGKVPKLLIYAASSLQSGFPSRFSGSGSGTDFTLTISSLQPEDFATYYCQQTHSFPWTVGQGTKVEIK
B8: H4H9663P (antibody, from another filing, IgG4, V domains shown)
VH: QVQLVQSGAEVKKPGASVKVSCKASGYTFTGHYMYWMRQAPGQGLEWMGWINPNSGGTNYAQKFQDRVTMTRDTSISTAYMELSRLRSDDTAVYYCARGRYGSSWYGGFEYWGQGTLVTVSS
VL: DIQMTQSPSSVSASVGDRVTITCRASQGITSWLAWYQQKPGKAPNLLIYAAASLQSGVPSRFSGSGSGTDFTLTISSLQPEDFTTYYCQQAYSLPLTFGGGTKVEIK

Legend:
[1] = target: T1, human IL-33 (R&D Systems, #3625-IL-010/CF) (human); assay: cell-based or functional assay
[2] = target: T1, human IL-33 (R&D Systems, #3625-IL-010/CF) (human)
[3] = target: T2, biotinylated human IL-33 (human); assay: competitive ELISA, biotin-huIL-33 to coated hST2-Fc
[4] = target: T1, human IL-33 (R&D Systems, #3625-IL-010/CF) (human); assay: SPR Biacore T200, 25 C
[5] = target: T1, human IL-33 (R&D Systems, #3625-IL-010/CF) (human); remark: listed apart in the source
[6] = target: T1, human IL-33 (R&D Systems, #3625-IL-010/CF) (human); remark: listed apart in the source
[7] = target: T1, human IL-33 (R&D Systems, #3625-IL-010/CF) (human); assay: SPR Biacore T200, 37 C
[8] = target: T1, human IL-33 (R&D Systems, #3625-IL-010/CF) (human); remark: listed apart in the source
[9] = target: T1, human IL-33 (R&D Systems, #3625-IL-010/CF) (human); remark: listed apart in the source
[10] = target: T1, human IL-33 (R&D Systems, #3625-IL-010/CF) (human); remark: listed apart in the source

Binder	HEK-BLUE SEAP reporter IC50 [1]	IFN-γ secretion from primary NK cells, IC50 [1]	phospho-p38 in primary basophils, IC50 [1]	IC50, IL-33-induced phospho-p38 in primary human basophils, 500 pM hIL-33 [2]	IC50 [3]	Maximum Blocking [3]	Kd [4]	koff [4]	kon [4]	t1/2 [4]	Ph-p38 MFI at 0.4 nM Ab (500 pM human IL-33, primary basophils) [5]	Ph-p38 MFI at 2 nM Ab (500 pM human IL-33, primary basophils) [6]	Kd [7]	koff [7]	kon [7]	t1/2 [7]	IC50; SEAP reporter (OD 620), HEK-BLUE IL-33/IL-1beta cells, 10 pM hIL-33 [8]	IC50; IFN-gamma ELISA, primary human NK cells, 260 pM hIL-33 + IL-12 [9]	IC50 (read off the curve) [10]
B1	0.011 nM	0.097 nM	0.00038 nM	3.5e-13 M	0.063 nM	84%	0.391 nM	0.000637 s⁻¹	1.63e+06 M⁻¹ s⁻¹	18 min	48 MFI	30 MFI	0.192 nM	0.000779 s⁻¹	4.06e+06 M⁻¹ s⁻¹	15 min	–	–	–
B2	–	–	–	7.6e-06 M	0.21 nM	81%	1.74 nM	0.00115 s⁻¹	665000 M⁻¹ s⁻¹	10 min	90 MFI	71 MFI	0.934 nM	0.00158 s⁻¹	1.69e+06 M⁻¹ s⁻¹	7 min	7.1e-10 M	1e-08 M	–
B3	–	–	0.00014 nM	–	0.19 nM	87%	1.31 nM	0.000445 s⁻¹	339000 M⁻¹ s⁻¹	26 min	63 MFI	40 MFI	0.674 nM	0.000531 s⁻¹	789000 M⁻¹ s⁻¹	22 min	1.5e-10 M	–	–
B4	–	–	–	2.3e-12 M	0.096 nM	77%	0.736 nM	0.000963 s⁻¹	1.31e+06 M⁻¹ s⁻¹	12 min	122 MFI	83 MFI	0.552 nM	0.00203 s⁻¹	3.68e+06 M⁻¹ s⁻¹	6 min	5.7e-10 M	–	0.002 nM
B5	–	–	–	2.5e-09 M	0.25 nM	85%	0.527 nM	0.000459 s⁻¹	871000 M⁻¹ s⁻¹	25 min	86 MFI	44 MFI	0.242 nM	0.000566 s⁻¹	2.34e+06 M⁻¹ s⁻¹	20 min	1.5e-10 M	1.2e-09 M	–
B6	–	–	–	2.4e-09 M	0.7 nM	63%	1.25 nM	0.00116 s⁻¹	931000 M⁻¹ s⁻¹	10 min	106 MFI	105 MFI	1 nM	0.00235 s⁻¹	2.35e+06 M⁻¹ s⁻¹	5 min	1.1e-09 M	–	–
B7	–	–	–	–	0.42 nM	80%	0.761 nM	0.000517 s⁻¹	680000 M⁻¹ s⁻¹	22 min	118 MFI	90 MFI	0.519 nM	0.000663 s⁻¹	1.28e+06 M⁻¹ s⁻¹	17 min	2.6e-09 M	–	–
B8	–	–	–	–	0.44 nM	82%	0.558 nM	0.000937 s⁻¹	1.68e+06 M⁻¹ s⁻¹	12 min	123 MFI	80 MFI	0.517 nM	0.00161 s⁻¹	3.11e+06 M⁻¹ s⁻¹	7 min	1.5e-09 M	4.6e-09 M	–
